Assay results: patent publication US20180155450A1 (Sanofi, published 2018)

T1: recombinant human IL4 (human, UniProt P05112 25-153)
T1 construct: bought; also called Antigen1
T1 sequence (looked up): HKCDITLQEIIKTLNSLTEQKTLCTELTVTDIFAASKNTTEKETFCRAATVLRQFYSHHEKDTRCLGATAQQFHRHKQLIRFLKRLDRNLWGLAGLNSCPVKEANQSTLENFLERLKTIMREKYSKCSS

T2: recombinant human IL4 (human, UniProt P05112 25-153)
T2 construct: bought
T2 sequence (looked up): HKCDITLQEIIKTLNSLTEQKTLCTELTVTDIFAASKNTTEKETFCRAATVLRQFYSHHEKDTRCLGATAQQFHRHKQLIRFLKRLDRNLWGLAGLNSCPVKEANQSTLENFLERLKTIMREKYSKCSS


What was measured:
[1] = target: T1, recombinant human IL4; experiment: SPR (Biacore 3000), captured CODV-Ig, antigen as analyte;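 note: kd derived from kinetic fits in BIAevaluation 4.1, with signals referenced against a flow cell lacking captured antibody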
Description: (§1) Kinetic binding analysis by Biacore was performed as follows. Surface plasmon resonance technology on a Biacore 3000 (GE Healthcare) was used for detailed kinetic characterization of purified antibodies. […] Chip surfaces were regenerated with 10 mM glycine pH 2.5. Kinetic parameters were analyzed and calculated in the BIAevaluation program package v4.1 using a flow cell without captured antibody as a reference.

[2] = target: T3, recombinant human IL13 (human, UniProt P35225 35-146, limits assumed); experiment: as above
T3 construct: bought; also called Antigen2
Description: as §1

[3] = target: T2, recombinant human IL4; experiment: SPR (Biacore 3000), antibody captured, antigen as analyte
Description: as §1

[4] = target: T2, recombinant human IL4; experiment: cell-based or functional assay

T3 sequence (P35225 35-146 limits assumed): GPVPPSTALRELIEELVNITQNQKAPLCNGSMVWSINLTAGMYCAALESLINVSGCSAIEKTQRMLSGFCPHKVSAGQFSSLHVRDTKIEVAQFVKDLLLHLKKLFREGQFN

Row | Kd [1] [nM] | Kd [2] [nM] | Kd [3] [nM] | IC50 Cellular Assay IL4 [nM] (HEK-Blue IL-4/IL-13 reporter cells, SEAP) [4] | Binder
1 | 0.005 | 0.05 | – | – | CODV-Ig Batch ID 243 (IL4 × IL13 on HC; L1=3, L2=6, L3=6, L4=0) (bispecific antibody) chain 1: not shown chain 2: DIVLTQSPASLAVSLGQRATISCRASESVDSYGQSYMHWYQQKAGQPPKLLIYLASNLESGVPARFSGSGSRTDFTLTIDPVQAEDAATYYCQQNAEDSRTFGGGTKLEIKGGGDIQMTQSPASLSVSVGDTITLTCHASQNIDVWLSWFQQKPGNIPKLLIYKASNLHTGVPSRFSGSGSGTGFTLTISSLQPEDIATYYCQQAHSYPFTFGGGTKLEIKGGGGGGRTVAAPSVFIFPPSDEQLKSGTASVVCLLNNFYPREAKVQWKVDNALQSGNSQESVTEQDSKDSTYSLSSTLTLSKADYEKHKVYACEVTHQGLSSPVTKSFNRGEC
2 | 0.003 | 0.113 | – | – | CODV-Ig Batch ID 233 (IL4 × IL13 on HC; L1=7, L2=3, L3=5, L4=0) (bispecific antibody) chain 1: not shown chain 2: DIVLTQSPASLAVSLGQRATISCRASESVDSYGQSYMHWYQQKAGQPPKLLIYLASNLESGVPARFSGSGSRTDFTLTIDPVQAEDAATYYCQQNAEDSRTFGGGTKLEIKGGGGGGGDIQMTQSPASLSVSVGDTITLTCHASQNIDVWLSWFQQKPGNIPKLLIYKASNLHTGVPSRFSGSGSGTGFTLTISSLQPEDIATYYCQQAHSYPFTFGGGTKLEIKGGGRTVAAPSVFIFPPSDEQLKSGTASVVCLLNNFYPREAKVQWKVDNALQSGNSQESVTEQDSKDSTYSLSSTLTLSKADYEKHKVYACEVTHQGLSSPVTKSFNRGEC
3 | 0.08 | 0.046 | – | – | CODV-Ig Batch ID 203 (IL4 × IL13 on HC; L1=7, L2=3, L3=1, L4=2) (bispecific antibody) chain 1: not shown chain 2: DIVLTQSPASLAVSLGQRATISCRASESVDSYGQSYMHWYQQKAGQPPKLLIYLASNLESGVPARFSGSGSRTDFTLTIDPVQAEDAATYYCQQNAEDSRTFGGGTKLEIKGGGGGGGDIQMTQSPASLSVSVGDTITLTCHASQNIDVWLSWFQQKPGNIPKLLIYKASNLHTGVPSRFSGSGSGTGFTLTISSLQPEDIATYYCQQAHSYPFTFGGGTKLEIKGGGRTVAAPSVFIFPPSDEQLKSGTASVVCLLNNFYPREAKVQWKVDNALQSGNSQESVTEQDSKDSTYSLSSTLTLSKADYEKHKVYACEVTHQGLSSPVTKSFNRGEC
4 | – | – | 0.007 | 0.045 | CODV-Ig Batch ID 506 (IL4 × IL13 on HC; L1 GQPKAAP, L2 TVAAP, L3 S, L4 TK) (bispecific antibody) heavy: not shown light: DIVLTQSPASLAVSLGQRATISCRASESVDSYGQSYMHWYQQKAGQPPKLLIYLASNLESGVPARFSGSGSRTDFTLTIDPVQAEDAATYYCQQNAEDSRTFGGGTKLEIKGQPKAAPDIQMTQSPASLSVSVGDTITLTCHASQNIDVWLSWFQQKPGNIPKLLIYKASNLHTGVPSRFSGSGSGTGFTLTISSLQPEDIATYYCQQAHSYPFTFGGGTKLEIKTVAAPRTVAAPSVFIFPPSDEQLKSGTASVVCLLNNFYPREAKVQWKVDNALQSGNSQESVTEQDSKDSTYSLSSTLTLSKADYEKHKVYACEVTHQGLSSPVTKSFNRGEC
5 | – | – | 0.003 | 0.047 | CODV-Ig Batch ID 503 (IL4 × IL13 on HC; L1 ASTKGPS, L2 TVAAP, L3 S, L4 SS) (bispecific antibody) heavy: not shown light: DIVLTQSPASLAVSLGQRATISCRASESVDSYGQSYMHWYQQKAGQPPKLLIYLASNLESGVPARFSGSGSRTDFTLTIDPVQAEDAATYYCQQNAEDSRTFGGGTKLEIKASTKGPSDIQMTQSPASLSVSVGDTITLTCHASQNIDVWLSWFQQKPGNIPKLLIYKASNLHTGVPSRFSGSGSGTGFTLTISSLQPEDIATYYCQQAHSYPFTFGGGTKLEIKTVAAPRTVAAPSVFIFPPSDEQLKSGTASVVCLLNNFYPREAKVQWKVDNALQSGNSQESVTEQDSKDSTYSLSSTLTLSKADYEKHKVYACEVTHQGLSSPVTKSFNRGEC
6 | – | – | 0.006 | 0.033 | CODV-Ig Batch ID 505 (IL4 × IL13 on HC; L1 GQPKAAP, L2 TKGPS, L3 S, L4 RT) (bispecific antibody) heavy: not shown light: DIVLTQSPASLAVSLGQRATISCRASESVDSYGQSYMHWYQQKAGQPPKLLIYLASNLESGVPARFSGSGSRTDFTLTIDPVQAEDAATYYCQQNAEDSRTFGGGTKLEIKGQPKAAPDIQMTQSPASLSVSVGDTITLTCHASQNIDVWLSWFQQKPGNIPKLLIYKASNLHTGVPSRFSGSGSGTGFTLTISSLQPEDIATYYCQQAHSYPFTFGGGTKLEIKTKGPSRTVAAPSVFIFPPSDEQLKSGTASVVCLLNNFYPREAKVQWKVDNALQSGNSQESVTEQDSKDSTYSLSSTLTLSKADYEKHKVYACEVTHQGLSSPVTKSFNRGEC
7 | – | – | 0.008 | 0.042 | CODV-Ig Batch ID 504 (IL4 × IL13 on HC; L1 RTVAAPS, L2 QPKAA, L3 S, L4 TK) (bispecific antibody) heavy: not shown light: DIVLTQSPASLAVSLGQRATISCRASESVDSYGQSYMHWYQQKAGQPPKLLIYLASNLESGVPARFSGSGSRTDFTLTIDPVQAEDAATYYCQQNAEDSRTFGGGTKLEIKRTVAAPSDIQMTQSPASLSVSVGDTITLTCHASQNIDVWLSWFQQKPGNIPKLLIYKASNLHTGVPSRFSGSGSGTGFTLTISSLQPEDIATYYCQQAHSYPFTFGGGTKLEIKQPKAARTVAAPSVFIFPPSDEQLKSGTASVVCLLNNFYPREAKVQWKVDNALQSGNSQESVTEQDSKDSTYSLSSTLTLSKADYEKHKVYACEVTHQGLSSPVTKSFNRGEC
8 | – | – | 0.003 | 0.049 | CODV-Ig Batch ID 502 (IL4 × IL13 on HC; L1 ASTKGPS, L2 TVAAP, L3 S, L4 QP) (bispecific antibody) heavy: not shown light: DIVLTQSPASLAVSLGQRATISCRASESVDSYGQSYMHWYQQKAGQPPKLLIYLASNLESGVPARFSGSGSRTDFTLTIDPVQAEDAATYYCQQNAEDSRTFGGGTKLEIKASTKGPSDIQMTQSPASLSVSVGDTITLTCHASQNIDVWLSWFQQKPGNIPKLLIYKASNLHTGVPSRFSGSGSGTGFTLTISSLQPEDIATYYCQQAHSYPFTFGGGTKLEIKTVAAPRTVAAPSVFIFPPSDEQLKSGTASVVCLLNNFYPREAKVQWKVDNALQSGNSQESVTEQDSKDSTYSLSSTLTLSKADYEKHKVYACEVTHQGLSSPVTKSFNRGEC
9 | – | – | 0.001 | 0.034 | CODV-Ig Batch ID 501 (IL4 × IL13 on HC; L1 ASTKGPS, L2 TKGPS, L3 S, L4 RT) (bispecific antibody) heavy: not shown light: DIVLTQSPASLAVSLGQRATISCRASESVDSYGQSYMHWYQQKAGQPPKLLIYLASNLESGVPARFSGSGSRTDFTLTIDPVQAEDAATYYCQQNAEDSRTFGGGTKLEIKASTKGPSDIQMTQSPASLSVSVGDTITLTCHASQNIDVWLSWFQQKPGNIPKLLIYKASNLHTGVPSRFSGSGSGTGFTLTISSLQPEDIATYYCQQAHSYPFTFGGGTKLEIKTKGPSRTVAAPSVFIFPPSDEQLKSGTASVVCLLNNFYPREAKVQWKVDNALQSGNSQESVTEQDSKDSTYSLSSTLTLSKADYEKHKVYACEVTHQGLSSPVTKSFNRGEC
10 | 0.0093 | 0.0672 | – | – | CODV-Ig Batch ID 238 (IL4 × IL13 on HC; L1=5, L2=5, L3=5, L4=2) (bispecific antibody) chain 1: not shown chain 2: DIVLTQSPASLAVSLGQRATISCRASESVDSYGQSYMHWYQQKAGQPPKLLIYLASNLESGVPARFSGSGSRTDFTLTIDPVQAEDAATYYCQQNAEDSRTFGGGTKLEIKGGGGGDIQMTQSPASLSVSVGDTITLTCHASQNIDVWLSWFQQKPGNIPKLLIYKASNLHTGVPSRFSGSGSGTGFTLTISSLQPEDIATYYCQQAHSYPFTFGGGTKLEIKGGGGGRTVAAPSVFIFPPSDEQLKSGTASVVCLLNNFYPREAKVQWKVDNALQSGNSQESVTEQDSKDSTYSLSSTLTLSKADYEKHKVYACEVTHQGLSSPVTKSFNRGEC
11 | 0.009 | 0.054 | – | – | CODV-Ig Batch ID 202 (IL4 × IL13 on HC; L1=5, L2=5, L3=1, L4=2) (bispecific antibody) chain 1: not shown chain 2: DIVLTQSPASLAVSLGQRATISCRASESVDSYGQSYMHWYQQKAGQPPKLLIYLASNLESGVPARFSGSGSRTDFTLTIDPVQAEDAATYYCQQNAEDSRTFGGGTKLEIKGGGGGDIQMTQSPASLSVSVGDTITLTCHASQNIDVWLSWFQQKPGNIPKLLIYKASNLHTGVPSRFSGSGSGTGFTLTISSLQPEDIATYYCQQAHSYPFTFGGGTKLEIKGGGGGRTVAAPSVFIFPPSDEQLKSGTASVVCLLNNFYPREAKVQWKVDNALQSGNSQESVTEQDSKDSTYSLSSTLTLSKADYEKHKVYACEVTHQGLSSPVTKSFNRGEC
12 | 0.004 | 0.065 | – | – | CODV-Ig Batch ID 240 (IL4 × IL13 on HC; L1=7, L2=5, L3=5, L4=2) (bispecific antibody) chain 1: not shown chain 2: DIVLTQSPASLAVSLGQRATISCRASESVDSYGQSYMHWYQQKAGQPPKLLIYLASNLESGVPARFSGSGSRTDFTLTIDPVQAEDAATYYCQQNAEDSRTFGGGTKLEIKGGGGGGGDIQMTQSPASLSVSVGDTITLTCHASQNIDVWLSWFQQKPGNIPKLLIYKASNLHTGVPSRFSGSGSGTGFTLTISSLQPEDIATYYCQQAHSYPFTFGGGTKLEIKGGGGGRTVAAPSVFIFPPSDEQLKSGTASVVCLLNNFYPREAKVQWKVDNALQSGNSQESVTEQDSKDSTYSLSSTLTLSKADYEKHKVYACEVTHQGLSSPVTKSFNRGEC
13 | 0.0081 | 0.101 | – | – | CODV-Ig Batch ID 237 (IL4 × IL13 on HC; L1=5, L2=3, L3=5, L4=2) (bispecific antibody) chain 1: not shown chain 2: DIVLTQSPASLAVSLGQRATISCRASESVDSYGQSYMHWYQQKAGQPPKLLIYLASNLESGVPARFSGSGSRTDFTLTIDPVQAEDAATYYCQQNAEDSRTFGGGTKLEIKGGGGGDIQMTQSPASLSVSVGDTITLTCHASQNIDVWLSWFQQKPGNIPKLLIYKASNLHTGVPSRFSGSGSGTGFTLTISSLQPEDIATYYCQQAHSYPFTFGGGTKLEIKGGGRTVAAPSVFIFPPSDEQLKSGTASVVCLLNNFYPREAKVQWKVDNALQSGNSQESVTEQDSKDSTYSLSSTLTLSKADYEKHKVYACEVTHQGLSSPVTKSFNRGEC
14 | 0.004 | 0.072 | – | – | CODV-Ig Batch ID 201 (IL4 × IL13 on HC; L1=5, L2=3, L3=1, L4=2) (bispecific antibody) chain 1: not shown chain 2: DIVLTQSPASLAVSLGQRATISCRASESVDSYGQSYMHWYQQKAGQPPKLLIYLASNLESGVPARFSGSGSRTDFTLTIDPVQAEDAATYYCQQNAEDSRTFGGGTKLEIKGGGGGDIQMTQSPASLSVSVGDTITLTCHASQNIDVWLSWFQQKPGNIPKLLIYKASNLHTGVPSRFSGSGSGTGFTLTISSLQPEDIATYYCQQAHSYPFTFGGGTKLEIKGGGRTVAAPSVFIFPPSDEQLKSGTASVVCLLNNFYPREAKVQWKVDNALQSGNSQESVTEQDSKDSTYSLSSTLTLSKADYEKHKVYACEVTHQGLSSPVTKSFNRGEC
